# Assays:
# [1] = target: AD-CaM (Calmodulin, encoded by the CALM2 gene, fused to the activation domain) (human) (UniProt P0DP24); experiment: cell-based or functional assay
# [2] = target: AD-CaM (Calmodulin, encoded by the CALM2 gene, fused to the activation domain) (human) (UniProt P0DP24); experiment: yeast two-hybrid, CPRG β-gal assay, against DB-Q2C wt
# Sequence of DB-KCNQ2 wild-type (wt) C-term BAIT (O43526 other isoform, or with tags, fused parts or gaps limits assumed): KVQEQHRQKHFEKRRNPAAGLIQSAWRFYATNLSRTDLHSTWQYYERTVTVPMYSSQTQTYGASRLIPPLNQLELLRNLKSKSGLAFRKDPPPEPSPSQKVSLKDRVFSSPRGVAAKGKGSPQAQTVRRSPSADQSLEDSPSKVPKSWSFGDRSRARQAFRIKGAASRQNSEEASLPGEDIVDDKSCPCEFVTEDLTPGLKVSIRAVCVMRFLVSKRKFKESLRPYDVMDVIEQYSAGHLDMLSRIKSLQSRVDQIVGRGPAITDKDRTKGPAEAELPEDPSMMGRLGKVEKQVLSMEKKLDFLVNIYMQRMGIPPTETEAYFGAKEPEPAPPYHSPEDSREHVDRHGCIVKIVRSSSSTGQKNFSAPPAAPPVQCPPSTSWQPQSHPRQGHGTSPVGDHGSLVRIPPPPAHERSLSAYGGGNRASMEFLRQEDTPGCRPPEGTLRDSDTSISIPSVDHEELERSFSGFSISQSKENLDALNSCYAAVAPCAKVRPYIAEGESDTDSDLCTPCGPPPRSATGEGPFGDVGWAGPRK
Substance,"units of β-gal activity (CPRG assay, liquid culture) (units β-gal activity) [1]",fold increase in CaM binding affinity against wt [2] [fold]
DB-KCNQ2 wild-type (wt) C-term BAIT (from UniProt O43526 319-872),0.05,–
DB-Q2C L619R mutant (from UniProt O43526 319-872),0.26,5

# — patent US20090081724A1
